Patent publication US9212226B2, “Amino acid sequences directed against CXCR4 and other GPCRs and compounds comprising the same” (Ablynx N.V., priority 2008, dated 2015)

Columns and labels:
CXCR4 [1] = molecular target: T1, CXCR4 (Homo sapiens, UniProt P61073); assay: [125I]-238D2 competition binding on membranes from HEK293T cells transiently expressing CXCR4
CXCR4 [2] = molecular target: T1, CXCR4; assay: [125I]-CXCL12 competition binding on membranes from HEK293T cells transiently expressing CXCR4; details: for affinity to CXCR4: in words; for displacement of specifically bound [125I]-CXCL12: purified ligands, highest Nanobody test concentration 0.5 μM; for Binding (binding efficiency, competition binding with [125I]-CXCL12): screening of Nanobody clone pools
[3] = membranes from HEK293T cells transiently expressing CXCR4, mean ± S.E.M.
[4] = membranes from HEK293T cells transiently expressing CXCR4

T1 sequence (P61073 whole entry): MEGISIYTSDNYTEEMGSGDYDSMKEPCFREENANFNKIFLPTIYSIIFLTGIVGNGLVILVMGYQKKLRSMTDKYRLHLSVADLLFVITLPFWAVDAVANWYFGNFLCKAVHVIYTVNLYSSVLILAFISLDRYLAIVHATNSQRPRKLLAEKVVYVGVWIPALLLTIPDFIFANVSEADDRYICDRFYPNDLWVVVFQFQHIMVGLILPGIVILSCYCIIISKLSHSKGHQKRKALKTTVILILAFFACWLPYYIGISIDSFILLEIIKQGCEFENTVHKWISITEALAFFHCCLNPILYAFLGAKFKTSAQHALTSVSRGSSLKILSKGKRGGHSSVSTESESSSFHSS

Molecule	Displacem. (%) of [125I]-238D2 (maximal displacement) (CXCR4 [1]; [3])	pKi, [125I]-238D2 (CXCR4 [1]; [3])	affinity to CXCR4 (CXCR4 [2])	Displacem. (%) of [125I]-CXCL12 (maximal displacement) (CXCR4 [2]; [3])	pKi, [125I]-CXCL12 (CXCR4 [2]; [3])	displacement of specifically bound [125I]-CXCL12 (CXCR4 [2])	Binding (binding efficiency, competition binding with [125I]-CXCL12) (CXCR4 [2]; [4])	displacement of [125I]-238D2 from CXCR4 (CXCR4 [1]; [125I]-238D2 3 nM)
238D2: Nanobody (VHH) raised against human CXCR4, SEQ ID NO: 238 (protein, Nanobody, Nanobody constructs or fragments thereof) VHH: EVQLVESGGGLVQTGGSLRLSCAASGFTFSSYAMSWVRQAPGKGLEWVSGIKSSGDSTRYAGSVKGRFTISRDNAKNMLYLQMYSLKPEDTAVYYCAKSRVSRTGLYTYDNRGQGTQVTVSS	97 ± 6%	8.41 ± 0.11	low nanomolar range	93 ± 5%	8.01 ± 0.12	fully displace	++ (++ = 70-100%)	–
238D4: Nanobody (VHH) raised against human CXCR4, SEQ ID NO: 239 (protein, Nanobody, Nanobody constructs or fragments thereof) VHH: EVQLMESGGGLVQAGGSLRLSCAASGRTFNNYAMGWFRRAPGKEREFVAAITRSGVRSGVSAIYGDSVKDRFTISRDNAKNTLYLQMNSLKPEDTAVYTCAASAIGSGALRRFEYDYSGQGTQVTVSS	101 ± 1%	–	low nanomolar range	–	–	fully displace	++ (++ = 70-100%)	full displacement
